Target: LS-Rg, chimeric protein of the extracellular domain of human L-selectin joined to the Fc domain of a human G2 immunoglobulin (human) (UniProt P14151)
Assay: competition with radio-labeled 2'-F RNA ligand LF1807 for purified LS-Rg

LS-Rg, chimeric protein of the extracellular domain of human L-selectin joined to the Fc domain of a human G2 immunoglobulin (human), sequence (P14151 39-332, change not shown): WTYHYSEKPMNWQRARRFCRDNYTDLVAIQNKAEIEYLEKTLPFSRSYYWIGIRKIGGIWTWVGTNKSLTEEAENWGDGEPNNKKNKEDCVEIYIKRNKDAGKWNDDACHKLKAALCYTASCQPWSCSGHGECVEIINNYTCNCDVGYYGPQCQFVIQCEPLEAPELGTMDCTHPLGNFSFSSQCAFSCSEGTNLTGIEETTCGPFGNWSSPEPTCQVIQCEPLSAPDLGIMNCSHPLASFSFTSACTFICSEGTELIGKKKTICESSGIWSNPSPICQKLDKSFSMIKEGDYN

concentration at which inhibition was complete: 300 nM
Substance: DREG-56, L-selectin specific blocking monoclonal antibody

— patent US7399752
